Each sequence was assayed on p44 (in p44/p62 complex);p62 (in p44/p62 complex) (Chaetomium thermophilum;Chaetomium thermophilum) (assay: fluorescence anisotropy). Conditions: 20 mM HEPES pH 7.5, 30 mM KCl, 5 mM MgCl2, 1 mM TCEP, 5 nM DNA, room temperature.
Sequence “TTTTTTTTTTTTTTTCCCGGCCATGCGAAGCATGGCCGGGTTTTT [open fork hairpin]” has a Kd of 210 nM.
“GACTACGTACTGTTACGGCTCCATCTCTACCGCAATCAGGCCAGATCTGC [undamaged ssDNA 50 nt]” was tested, and the Kd was 840 nM.
For “GACTACGTACTGTTACGGCTCCATCTCTACCGCAATCAGGCCAGATCTGC / GCAGATCTGGCCTGATTGCGGTAGCGATGGAGCCGTAACAGTACGTAGTC [undamaged dsDNA 50 bp]”, the Kd was 1180 nM.
